The values that follow come from paper PMC12288907 (2025).

The target of experiment [1] is T1, recombinant soluble trimeric H7 HA of A/Shanghai/02/2013 H7N9 (SH13 H7) (Influenza A virus A/Shanghai/02/2013 …). Kind of experiment: BLI. In general terms: In BLI a coated tip is dipped into the sample, and binding shifts an interference pattern.
Experiment [2] has as its target A/Shanghai/02/2013 H7N9 (SH13) hemagglutinin HA1, monomeric (Influenza A virus A/Shanghai/02/2013 …, UniProt R4NN21 1-320, biotin (EZ-Link NHS-PEG4-Biotin, antigen:biotin 1:1) in the BLI only). Nature of the experiment: BLI.
The target of experiment [3] is T1, recombinant soluble trimeric H7 HA of …. Kind of experiment: ELISA. A general note: ELISA stands for enzyme-linked immunosorbent assay.

B1: recombinant H7-235 IgG1 (rH7-235 IgG1) (antibody, V domains shown)
VH: QVQLVESGGGVVQPGESLRLSCAASGFAFRTYGMHWVRQAPGKGLEWVGVIWYDGSNKYYGDSVKGRFTISRDNSQNTLYLQMNSLRAEDTAVYYCARNGERWRVEDYYYGMDVWGQGTLVTVSS
VL: EIVMTQSPLSLPVTPGEPASISCRSSQSLLHSNAHNYLDWYLQKPGQSPQLLIYLGSNRASGVPDRFSGSGSGTDFTLKISRVEAEDVGIYYCMQALQTPITFGQGTRLEIK
By Kd is commonly meant the free concentration of one partner at which half of the binding sites on the other are occupied at equilibrium, for simple one-to-one binding. The EC50 is the concentration at which the effect is half-maximal. As for B1, the Kd in experiment [1] and in experiment [2] was under 0.02 nM throughout. Further, the EC50 in experiment [3] was 0.03 nM.

B2: recombinant H7-235 fragment antigen-binding region (rH7-235 Fab) (Fab, V domains shown)
VH: B1 VH
VL: B1 VL
Regarding B2, the Kd in experiment [1] came out at 2.12 nM. Further, the EC50 in experiment [3] amounted to 0.16 nM.
